Measurements from US20040214255A1 (MYRIAD GENETICS, published 2004).

B1: Insulin-Regulated Membrane-Spanning Aminopeptidase (IRAP), amino acids 750-1026 (enzyme, human, UniProt Q9UIQ6 750-1025, looked up)
chain: FDLINYLGNENHTAPITEALFQTDLIYNLLEKLGYMDLASRLVTRVFKLLQNQIQQQTWTDEGTPSMRELRSALLEFACTHNLGNCSTTAMKLFDDWMASNGTQSLPTDVMTTVFKVGAKTDKGWSFLLGKYISIGSEAEKNKILEALASSEDVRKLYWLMKSSLNGDNFRTQKLSFIIRTVGRHFPGHLLAWDFVKENWNKLVQKFPLGSYTIQNIVAGSTYLFSTKTHLSEVQAFFENQSEATFRLRCVQEALEVIQLNIQWMEKNLKSLTWWL
notes: range 750-1026; also called C-terminal portion of IRAP
B2: Tankyrase, amino acids 603-725 (enzyme, human, UniProt O95271 603-725, looked up)
chain: HLQTCRLLLSYGSDPSIISLQGFTAAQMGNEAVQQILSESTPIRTSDVDYRLLEASKAGDLETVKQLCSSQNVNCRDLEGRHSTPLHFAAGYNRVSVVEYLLHHGADVHAKDKGGLVPLHNAC
notes: range 603-725
B3: PP5, amino acids 1-150 (enzyme, human, UniProt P53041 1-150, looked up)
chain: MAMAEGERTECAEPPRDEPPADGALKRAEELKTQANDYFKAKDYENAIKFYSQAIELNPSNAIYYGNRSLAYLRTECYGYALGDATRAIELDKKYIKGYYRRAASNMALGKFRAALRDYETVVKVKPHDKDAKMKYQECNKIVKQKAFER
notes: range 1-150; also called Protein phosphatase 5

Assays:
[1] = target: T1, β-Spectrin, amino acids 1592-2096 (human, UniProt Q01082 1592-2096); test: yeast two-hybrid
T1 construct: range 1592-2096; also called non-erythrocytic beta-spectrin; beta spectrin
From the text: (§1) The new construct was selected directly in the yeast strain PNY200 for its ability to drive tryptophane synthesis (genotype of this strain: […] trp1-901 leu2-3,112 ura3-52 his3-200 ade2 gal4Δ gal80). In these yeast cells, the bait was produced as a C-terminal fusion protein with the DNA binding domain of the transcription factor Ga14 (amino acids 1 to 147). Prey libraries were transformed into the yeast strain BK100 (genotype of this strain: MATα trp1-901 leu2-3,112 ura3-52 his3-200 gal4Δ gal80 LYS2::GAL-HIS3 GAL2-ADE2 met2::GAL7-lacZ), and selected for the ability to drive leucine synthesis. In these yeast cells, each cDNA was expressed as a fusion protein with the transcription activation domain of the transcription factor Ga14 (amino acids 768 to 881) and a 9 amino acid hemagglutinin epitope tag. PNY200 cells (MATα mating type), expressing the bait, were then mated with BK100 cells (MATa mating type), expressing prey proteins from a prey library. The resulting diploid yeast cells expressing proteins interacting with the bait protein were selected for the ability to synthesize tryptophan, leucine, histidine, and adenine. DNA was prepared from each clone, transformed by electroporation into E. coli strain KC8 (Clontech KC8 electrocompetent cells, Catalog No. C2023-1), and the cells were selected on ampicillin-containing plates in the absence of either tryptophane (selection for the bait plasmid) or leucine (selection for the library plasmid). DNA for both plasmids was prepared and sequenced by the dideoxynucleotide chain termination method. The identity of the bait cDNA insert was confirmed and the cDNA insert from the prey library plasmid was identified using the BLAST program to search against public nucleotide and protein databases. Plasmids from the prey library were then individually transformed into yeast cells together with a plasmid driving the synthesis of lamin and 5 other test proteins, respectively, fused to the Ga14 DNA binding domain. Clones that gave a positive signal in the β-galactosidase assay were considered false-positives and discarded. […] Clones that gave a positive signal in the β-galactosidase assay were considered true positives.

[2] = target: B3; test: yeast two-hybrid
From the text: as §1

[3] = target: T2, Alpha-SNAP, amino acids 36-241 (human, UniProt P54920 36-241); test: yeast two-hybrid
T2 construct: range 36-241
T2 sequence (looked up): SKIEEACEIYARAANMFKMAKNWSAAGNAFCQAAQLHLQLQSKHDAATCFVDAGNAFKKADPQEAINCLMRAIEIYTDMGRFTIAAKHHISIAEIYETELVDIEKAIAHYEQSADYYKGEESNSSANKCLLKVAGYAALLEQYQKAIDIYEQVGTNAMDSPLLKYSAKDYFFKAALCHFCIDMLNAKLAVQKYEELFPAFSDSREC
From the text: as §1

[4] = target: T3, Beta-catenin, amino acids 579-782 (human, UniProt P35222 579-781); test: yeast two-hybrid
T3 construct: range 579-782
T3 sequence (looked up): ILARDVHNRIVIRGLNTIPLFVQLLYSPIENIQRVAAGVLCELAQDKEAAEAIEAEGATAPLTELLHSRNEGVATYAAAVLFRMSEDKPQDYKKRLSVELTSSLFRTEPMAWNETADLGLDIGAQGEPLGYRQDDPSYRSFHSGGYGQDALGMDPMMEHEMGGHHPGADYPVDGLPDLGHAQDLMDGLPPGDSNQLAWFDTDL
From the text: as §1

[5] = target: T4, Clone C-193 (CARP), amino acids 21-302 (human, UniProt Q15327 21-302); test: yeast two-hybrid
T4 construct: range 21-302
From the text: as §1

[6] = target: T5, 14-3-3-Zeta, amino acids 1-200 (human, UniProt P63104 1-200); test: yeast two-hybrid; GLUT4 463-510 with 14-3-3-Zeta 1-200
T5 sequence: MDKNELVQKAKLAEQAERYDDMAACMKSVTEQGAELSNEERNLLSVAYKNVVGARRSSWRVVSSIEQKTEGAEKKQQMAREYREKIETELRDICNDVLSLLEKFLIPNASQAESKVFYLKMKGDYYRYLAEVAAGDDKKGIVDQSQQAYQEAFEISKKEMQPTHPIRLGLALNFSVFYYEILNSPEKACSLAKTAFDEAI
From the text: The new construct was selected directly in the yeast strain PNY200 for its ability to drive tryptophane synthesis (genotype of this strain: MATα trp1-901 leu2-3,112 ura3-52 his3-200 ade2 gal4Δ gal80). In these yeast cells, the bait was produced as a C-terminal fusion protein with the DNA binding domain of the transcription factor Ga14 (amino acids 1 to 147). Prey libraries were transformed into the yeast strain BK100 (genotype of this strain: MATα trp1-901 leu2-3,112 ura3-52 his3-200 gal4Δ gal80 LYS2::GAL-HIS3 GAL2-ADE2 met2::GAL7-lacZ), and selected for the ability to drive leucine synthesis. In these yeast cells, each cDNA was expressed as a fusion protein with the transcription activation domain of the transcription factor Ga14 (amino acids 768 to 881) and a 9 amino acid hemagglutinin epitope tag. PNY200 cells (MATα mating type), expressing the bait, were then mated with BK100 cells (MATa mating type), expressing prey proteins from a prey library. The resulting diploid yeast cells expressing proteins interacting with the bait protein were selected for the ability to synthesize tryptophan, leucine, histidine, and adenine. […]

[7] = target: T6, HSP89, amino acids 537-700 (human, UniProt P07900 537-700); test: yeast two-hybrid
T6 construct: range 537-700
From the text: as §1

T1 sequence (Q01082 1592-2096): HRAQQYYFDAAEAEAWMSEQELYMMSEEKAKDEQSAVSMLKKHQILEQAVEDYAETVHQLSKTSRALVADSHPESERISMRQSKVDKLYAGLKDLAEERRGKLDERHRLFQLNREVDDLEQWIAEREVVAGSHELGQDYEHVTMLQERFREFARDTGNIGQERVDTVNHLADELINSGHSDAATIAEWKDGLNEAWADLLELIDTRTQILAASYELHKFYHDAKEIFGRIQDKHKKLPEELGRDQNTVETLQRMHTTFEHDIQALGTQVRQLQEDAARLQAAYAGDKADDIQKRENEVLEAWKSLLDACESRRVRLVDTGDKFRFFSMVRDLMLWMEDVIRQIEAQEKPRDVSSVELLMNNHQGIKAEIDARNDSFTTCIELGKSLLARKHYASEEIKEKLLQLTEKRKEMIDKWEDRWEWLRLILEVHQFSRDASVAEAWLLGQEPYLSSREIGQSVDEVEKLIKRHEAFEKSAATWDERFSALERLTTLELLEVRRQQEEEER
T6 sequence (P07900 537-700): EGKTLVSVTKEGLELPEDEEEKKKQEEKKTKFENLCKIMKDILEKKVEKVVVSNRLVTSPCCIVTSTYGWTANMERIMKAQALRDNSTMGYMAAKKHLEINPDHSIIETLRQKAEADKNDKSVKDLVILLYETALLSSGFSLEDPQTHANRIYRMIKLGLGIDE
T4 sequence (Q15327 21-302 limits assumed): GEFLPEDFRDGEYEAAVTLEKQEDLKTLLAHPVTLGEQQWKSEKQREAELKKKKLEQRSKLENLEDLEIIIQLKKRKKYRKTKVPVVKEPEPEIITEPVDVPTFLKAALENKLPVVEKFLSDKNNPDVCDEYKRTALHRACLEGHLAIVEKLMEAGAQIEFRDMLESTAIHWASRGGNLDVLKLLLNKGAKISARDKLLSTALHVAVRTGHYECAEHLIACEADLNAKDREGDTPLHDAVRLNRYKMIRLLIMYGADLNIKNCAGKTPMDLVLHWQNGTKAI

B1: binds [1].

B2: binds [2].

FTFLRVPETRGRTFDQISAAFHRTPSLLEQEVKPSTELEYLGPDEND (other, human, UniProt P14672 463-509, looked up, range 463-510; also called GLUT4; Glut4) [Glucose Transporter 4, amino acids 463-510]: binds [3]; binds [4]; binds [5]. FTFLRVPETRGRTFDQISAAFHRTPSLLEQEVKPSTELEYLGPDEND (other, human, UniProt P14672 463-509, looked up, range 463-510; also called GLUT4; Glut4) [Glucose Transporter 4, amino acids 463-510]: binds [6].

B3: binds [7].
